In paper PMC13466294, “Nucleolaron1511 and Nucleolaron1510 Facilitate Effective Intracellular Delivery of Azami Green Protein in HeLa Cells” (International Journal of Molecular Sciences, 2026):

How the values were obtained:
HeLa cells [1] = experiment: Cellular uptake of TAMRA-labeled Nuc1510 by fluorescence microscopy; format: cell-based; conditions: 5 µM in DMEM with 10% FBS, 1 h, 4 h or overnight (any incubation condition)
Experimental: To examine the intrinsic cell-penetrating ability of Nuc1510, HeLa cells were treated with TAMRA-labeled Nuc1510 prepared in medium supplemented with 10% FBS and analyzed by fluorescence microscopy at 1 h, 4 h, and overnight incubation time points.
HeLa cells were seeded at 2 × 10^4 cells per well in 8-well chamber slides (Millicell EZ Slide, Sigma-Aldrich, St. Louis, MO, USA; or µ-Slide 8 Well glass-bottom, ibidi, Gräfelfing, Germany) and allowed to adhere for 24 h. For assessment of intrinsic cell-penetrating ability, the culture medium was replaced with free TAMRA or TAMRA–Nuc1510 at 5 µM prepared in DMEM supplemented with 10% FBS. For assessment of cargo delivery, cells were treated with AG, AG–Nuc1511, AG–Nuc1510, or AG–TAT at 1, 2, or 3 µM prepared in DMEM with 10% FBS. All cargo delivery treatments were performed at 37 °C, and the highest concentration (3 µM) was additionally tested at 4 °C to assess the contribution of energy-dependent uptake pathways.
TAMRA–Nuc1510 samples were incubated for 1 h, 4 h, or overnight at 37 °C, whereas all AG–CPP samples were incubated overnight only. […] Fluorescence imaging was performed using a Keyence BZ-X800 (Keyence, Osaka, Japan) digital fluorescence microscope. […]

HeLa cells [2] = experiment: Cell viability by MTT assay; format: cell-based; conditions: 24 h
Experimental: To assess the cytotoxic potential of Nuc1511 and Nuc1510, HeLa cells were treated with AG–Nuc1511 or AG–Nuc1510 at concentrations of 1, 3, 5, and 10 µM for 24 h, and cell viability was quantified using the MTT assay (Figure 4). AG–Nuc1511 caused a gradual concentration-dependent decline in viability, reaching approximately 78% at 10 µM, which was statistically significant relative to the untreated control. […] Taken together, both fusion proteins were well tolerated at concentrations up to 5 µM, with cytotoxicity becoming apparent only at 10 µM.
HeLa cells were seeded at 1 × 10^4 cells per well in 96-well microplates (Nunc^TM MicroWell^TM; Thermo Fisher Scientific) and allowed to adhere overnight. The culture medium was replaced with AG–Nuc1511 or AG–Nuc1510 at 1, 3, 5, or 10 µM prepared in DMEM supplemented with 10% FBS. Cell viability was assessed by MTT assay. Following 24 h incubation, treatment solutions were removed and cells were washed with PBS. A mixture of 50 µL MTT solution (Fujifilm) (5 mg/mL in PBS) and 50 µL Opti-MEM I Reduced Serum Medium (Thermo Fisher Scientific) was added to each well, and plates were incubated at 37 °C for 3 h. The medium was then removed, and formazan crystals were dissolved by addition of 150 µL MTT solvent (4 mM HCl, 0.1% NP-40 substitute in isopropanol), followed by 30 min agitation on an orbital shaker protected from light, with additional pipetting to ensure complete dissolution. Absorbance was measured at 590 nm. All conditions were performed in triplicate.

four cell lines = conditions: CPP fused to EGFP, across four cell lines; ref 45 (Patel et al.); cited from earlier work
Experimental: To quantify intracellular delivery, flow cytometry was performed following a stringent surface-depletion protocol. Cells were washed with an acidic glycine-NaCl solution to disrupt electrostatic interactions between surface-bound AG–CPP and the plasma membrane, then treated with trypsin, which both detaches cells from the culture plate and cleaves CPP sequences at arginine and lysine residues—amino acids abundant in all constructs tested—thereby eliminating residual surface-associated fluorescence. This protocol ensures that the measured fluorescence predominantly reflects int ...

5(6)-carboxytetramethylrhodamine [Free TAMRA]
Intracellular TAMRA fluorescence (HeLa cells [1]): no detectable intracellular fluorescence

MKDHLIHNHHKEEHAHAHNKDYDIPTTHHAHHSTENLYFQGSSGSSGMSVIKPEMKIKLCMRGTVNGHNFVIEGEGKGNPYEGTQILDLNVTEGAPLPFAYDILTTVFQYGNRAFTKYPADIQDYFKQTFPEGYHWERSMTYEDQGICTATSNISMRGDCFFYDIRFDGTNFPPNGPVMQKKTLKWEPSTEKMYVRDGVLKGDVNMALLLEGGGHYRCDFKTTYKAKKDVRLPDAHKVDHRIEILKHDKDYNKVKLYENAVARYSMLPSQAKGLQQGGTGGGGSKVLSRVVQLCREKLTRRRRSNRR [AG–Nuc1510, monomeric Azami Green genetically fused at its C-terminus via a linker to Nuc1510]
Reduction of viability (HeLa cells [2]; 10 µM): approximately 50%
Effect on viability (HeLa cells [2]; 1, 3, or 5 µM, Welch's t-test against untreated control): did not significantly reduce viability

MKDHLIHNHHKEEHAHAHNKDYDIPTTHHAHHSTENLYFQGSSGSSGMSVIKPEMKIKLCMRGTVNGHNFVIEGEGKGNPYEGTQILDLNVTEGAPLPFAYDILTTVFQYGNRAFTKYPADIQDYFKQTFPEGYHWERSMTYEDQGICTATSNISMRGDCFFYDIRFDGTNFPPNGPVMQKKTLKWEPSTEKMYVRDGVLKGDVNMALLLEGGGHYRCDFKTTYKAKKDVRLPDAHKVDHRIEILKHDKDYNKVKLYENAVARYSMLPSQAKGLQQGGTGGGGSTLKERCLQVVRSLVKKKRTLRKNDRKKR [AG–Nuc1511, monomeric Azami Green genetically fused at its C-terminus via a linker to Nuc1511]
Viability (%) (HeLa cells [2]; 10 µM, relative to untreated cells (100%), n = 3, 10 µM): approximately 78%

Penetratin
Uptake efficiency relative to TAT (four cell lines): performed comparably to TAT
